Experimental data reported in patent US20170210777A1 (FUJIFILM, published 2017).
Square brackets hold non-standard residues; d marks the D form. Ends that are not written are not given here. peg8 = octa(ethylene glycol) chain, 8 ethylene glycol units

Columns and labels:
[1] = target: T1, Bovine Serum Albumin (BSA, manufactured by Sigma-Aldrich) (bovine, UniProt P02769 25-607); experiment: SPR, ligand immobilised on CM5, BSA injected 10 min at 25 C
T1 construct: Injected at 1000 nM over the immobilised ligands in SPR (selectivity test)

[2] = target: T2, human IgG antibody (human); experiment: SPR (Biacore), ligand immobilised on CM5
T2 construct: Injected at 10 to 3000 nM over the immobilised ligands in SPR

[3] = target: T2, human IgG antibody; experiment: SPR (Biacore), ligand immobilised on CM5, fit with BIAevaluation 4.1

T1 sequence (P02769 25-607 limits assumed): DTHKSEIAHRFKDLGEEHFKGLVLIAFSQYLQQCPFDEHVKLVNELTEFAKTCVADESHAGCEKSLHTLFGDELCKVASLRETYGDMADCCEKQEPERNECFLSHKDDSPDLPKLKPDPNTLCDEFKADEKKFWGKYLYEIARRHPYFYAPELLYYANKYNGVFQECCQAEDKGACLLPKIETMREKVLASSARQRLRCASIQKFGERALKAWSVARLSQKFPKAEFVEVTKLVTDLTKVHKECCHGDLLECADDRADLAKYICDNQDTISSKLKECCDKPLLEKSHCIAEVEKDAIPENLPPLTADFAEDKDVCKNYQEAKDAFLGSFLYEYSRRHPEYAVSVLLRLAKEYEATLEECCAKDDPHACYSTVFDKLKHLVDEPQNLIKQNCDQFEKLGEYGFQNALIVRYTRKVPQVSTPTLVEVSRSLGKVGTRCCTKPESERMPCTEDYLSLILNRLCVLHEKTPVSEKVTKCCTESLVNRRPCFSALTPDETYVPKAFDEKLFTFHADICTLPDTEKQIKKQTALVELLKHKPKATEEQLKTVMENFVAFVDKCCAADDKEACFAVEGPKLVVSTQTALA

B1: polypeptide as set forth in SEQ ID NO: 14 (EAQQSAFY) (peptide)
peptide: EAQQSAFY
notes: Synthetic peptide, immobilised on a CM5 sensor chip; also called immobilized carrier N
For B1, the binding result [1] was “no binding (tested: 1000 nM)” and the koff [2] was 0.00014 s⁻¹.

B2: polypeptide as set forth in SEQ ID NO: 16 (EAQQNAFY) (peptide)
peptide: EAQQNAFY
notes: Synthetic peptide, immobilised on a CM5 sensor chip; also called immobilized carrier P
For B2, the binding result [1] was “no binding (tested: 1000 nM)” and the koff [2] was 0.00019 s⁻¹.

B3: polypeptide as set forth in SEQ ID NO: 17 (DAQQSAFY) (peptide)
peptide: DAQQSAFY
notes: Synthetic peptide, immobilised on a CM5 sensor chip; also called immobilized carrier Q
For B3, the binding result [1] was “no binding (tested: 1000 nM)” and the koff [2] was 0.00013 s⁻¹.

B4: polypeptide as set forth in SEQ ID NO: 4 (EQQNAFYEILHL) (peptide)
peptide: EQQNAFYEILHL
notes: Synthetic peptide, immobilised on a CM5 sensor chip; also called immobilized carrier D
For B4, the binding result [1] was “no binding (tested: 1000 nM)” and the koff [2] was 0.00013 s⁻¹.

B5: polypeptide Ac-EQQNAFYEILHK (SEQ ID NO: 21) (peptide)
peptide: Ac-EQQNAFYEILHK
notes: Synthetic peptide, immobilised on a CM5 sensor chip; also called immobilized carrier U
In the case of B5, the binding result [1] is reported as “no binding (tested: 1000 nM)” and the koff [2] is reported as 0.00016 s⁻¹.

B6: polypeptide Ac-KKKEQQNAFYKKK (SEQ ID NO: 22) (peptide)
peptide: Ac-KKKEQQNAFYKKK
notes: Synthetic peptide, immobilised on a CM5 sensor chip; also called immobilized carrier V
For B6, the binding result [1] was “no binding (tested: 1000 nM)” and the koff [2] was 0.00015 s⁻¹.

B7: fusion polypeptide Ac-EQQNAFY-(peg)8-K-(peg)8-EQQNAFY (SEQ ID NO: 25) (peptide)
peptide: Ac-EQQNAFY[peg8]K[peg8]EQQNAFY
notes: Synthetic fusion polypeptide, 15 amino acid residues, the two units and the central Lys joined by PEG linkers and not by peptide bonds; immobilised on a CM5 sensor chip; also called immobilized carrier Y
In the case of B7, the binding result [1] is reported as “no binding (tested: 1000 nM)” and the koff [2] is reported as 0.00019 s⁻¹.

B8: polypeptide EQQNAFY-NH2 (SEQ ID NO: 19) (peptide)
peptide: EQQNAFY-NH2
notes: Synthetic peptide, immobilised on a CM5 sensor chip; also called immobilized carrier S
B8 was tested, and the binding result [1] was “no binding (tested: 1000 nM)” and the koff [2] was 0.00015 s⁻¹.

B9: polypeptide as set forth in SEQ ID NO: 7 (KKKEQQNAFYEILHKKK) (peptide)
peptide: KKKEQQNAFYEILHKKK
notes: Synthetic peptide, immobilised on a CM5 sensor chip; also called immobilized carrier G
For B9, the binding result [1] was “no binding (tested: 1000 nM)” and the koff [2] was 0.00016 s⁻¹.

B10: polypeptide as set forth in SEQ ID NO: 8 (EQQNAFYGGGKGGGEQQNAFY) (peptide)
peptide: EQQNAFYGGGKGGGEQQNAFY
notes: Synthetic fusion polypeptide of two EQQNAFY units with a GGGKGGG linker, immobilised on a CM5 sensor chip; also called immobilized carrier H
In the case of B10, the binding result [1] is reported as “no binding (tested: 1000 nM)” and the koff [2] is reported as 0.00015 s⁻¹.

B11: polypeptide as set forth in SEQ ID NO: 2 (KEQQNAFY) (peptide)
peptide: KEQQNAFY
notes: Synthetic peptide, immobilised on a CM5 sensor chip; also called immobilized carrier B
B11 was tested, and the binding result [1] was “no binding (tested: 1000 nM)” and the koff [2] was 0.00013 s⁻¹.

B12: polypeptide Ac-EQQNAFYK (SEQ ID NO: 20) (peptide)
peptide: Ac-EQQNAFYK
notes: Synthetic peptide, immobilised on a CM5 sensor chip; also called immobilized carrier T
With B12 the binding result [1] was “no binding (tested: 1000 nM)” and the koff [2] was 0.00014 s⁻¹.

B13: polypeptide H2N-(peg)8-EQQNAFYE (SEQ ID NO: 24) (peptide)
peptide: peg8-EQQNAFYE
notes: Synthetic peptide, immobilised on a CM5 sensor chip; also called immobilized carrier X
With B13 the binding result [1] was “no binding (tested: 1000 nM)” and the koff [2] was 0.00013 s⁻¹.

B14: polypeptide as set forth in SEQ ID NO: 15 (EQSAFY) (peptide)
peptide: EQSAFY
notes: Synthetic peptide, immobilised on a CM5 sensor chip; also called immobilized carrier O
B14 was tested, and the binding result [1] was “no binding (tested: 1000 nM)” and the koff [2] was 0.00014 s⁻¹.

B15: polypeptide as set forth in SEQ ID NO: 18 (DQSAFY) (peptide)
peptide: DQSAFY
notes: Synthetic peptide, immobilised on a CM5 sensor chip; also called immobilized carrier R
In the case of B15, the binding result [1] is reported as “no binding (tested: 1000 nM)” and the koff [2] is reported as 0.00019 s⁻¹.

B16: polypeptide as set forth in SEQ ID NO: 9 (EQNAFY) (peptide)
peptide: EQNAFY
notes: Synthetic peptide, immobilised on a CM5 sensor chip; also called immobilized carrier I
B16 was tested, and the binding result [1] was “no binding (tested: 1000 nM)” and the koff [2] was 0.00017 s⁻¹.

B17: polypeptide Ac-KKKEQQNAFYEILHKKK (SEQ ID NO: 23) (peptide)
peptide: Ac-KKKEQQNAFYEILHKKK
notes: Synthetic peptide, immobilised on a CM5 sensor chip; also called immobilized carrier W
With B17 the binding result [1] was “no binding (tested: 1000 nM)” and the koff [2] was 0.00016 s⁻¹.

B18: polypeptide as set forth in SEQ ID NO: 1 (EQQNAFY) (peptide)
peptide: EQQNAFY
notes: Synthetic peptide, immobilised on a CM5 sensor chip by EDC/NHS coupling; also called polypeptide 1
For B18, the koff [3] was 0.00017 s⁻¹ and the binding result [1] was “no binding (tested: 1000 nM)”.

B19: polypeptide as set forth in SEQ ID NO: 5 (EGQNAFY) (peptide)
peptide: EGQNAFY
notes: Synthetic peptide, immobilised on a CM5 sensor chip; also called immobilized carrier E
With B19 the binding result [1] was “no binding (tested: 1000 nM)” and the koff [2] was 0.0002 s⁻¹.

B20: polypeptide as set forth in SEQ ID NO: 10 (EQQSAFY) (peptide)
peptide: EQQSAFY
notes: Synthetic peptide, immobilised on a CM5 sensor chip; also called immobilized carrier J
For B20, the binding result [1] was “no binding (tested: 1000 nM)” and the koff [2] was 0.00015 s⁻¹.

B21: polypeptide as set forth in SEQ ID NO: 12 (DQQSAFY) (peptide)
peptide: DQQSAFY
notes: Synthetic peptide, immobilised on a CM5 sensor chip; also called immobilized carrier L
With B21 the binding result [1] was “no binding (tested: 1000 nM)” and the koff [2] was 0.00015 s⁻¹.

B22: polypeptide as set forth in SEQ ID NO: 6 (KKKEQQNAFYKKK) (peptide)
peptide: KKKEQQNAFYKKK
notes: Synthetic peptide, immobilised on a CM5 sensor chip; also called immobilized carrier F
With B22 the binding result [1] was “no binding (tested: 1000 nM)” and the koff [2] was 0.00015 s⁻¹.

B23: polypeptide as set forth in SEQ ID NO: 26 (QQNAFYEI) (peptide)
peptide: QQNAFYEI
notes: Synthetic comparative peptide, immobilised on a CM5 sensor chip; also called immobilized carrier AC
B23 was tested, and the koff [2] was 0.00024 s⁻¹.

B24: polypeptide as set forth in SEQ ID NO: 11 (EQQSAFYEILH) (peptide)
peptide: EQQSAFYEILH
notes: Synthetic peptide, immobilised on a CM5 sensor chip; also called immobilized carrier K
B24 was tested, and the binding result [1] was “no binding (tested: 1000 nM)” and the koff [2] was 0.00018 s⁻¹.

B25: polypeptide as set forth in SEQ ID NO: 3 (EQQNAFYEILH) (peptide)
peptide: EQQNAFYEILH
notes: Synthetic peptide, immobilised on a CM5 sensor chip; also called immobilized carrier C
B25 was tested, and the binding result [1] was “no binding (tested: 1000 nM)” and the koff [2] was 0.00017 s⁻¹.

B26: polypeptide as set forth in SEQ ID NO: 13 (DQQSAFYEILH) (peptide)
peptide: DQQSAFYEILH
notes: Synthetic peptide, immobilised on a CM5 sensor chip; also called immobilized carrier M
B26 was tested, and the binding result [1] was “no binding (tested: 1000 nM)” and the koff [2] was 0.00015 s⁻¹.
